From PMC6969876, “NADPH biosensor-based identification of an alcohol dehydrogenase variant with improved catalytic properties caused by a single charge reversal at the protein surface” (AMB Express, 2020) come the findings set out here.

Broadly, the Km is the substrate concentration at which the rate is half of its maximum. One may read the Vmax as the rate approached at saturating substrate.

Substrate in data set [1]: COC(=O)CC(C)=O
Description: purified protein. The data set is classed as biochemical, Levilactobacillus brevis. Particulars: 0.3 mM NADPH, 1 mM MgCl2, 50 mM TEA pH 7.0, 30 °C.

Substrate in data set [2]: CC(=O)CCC(C)=O
Kind of data set: purified protein. The data set is classed as biochemical, Levilactobacillus brevis. Particulars: 0.3 mM NADPH, 1 mM MgCl2, 50 mM TEA pH 7.0, 30 °C.

B1: LbADH (Levilactobacillus brevis) (protein)
chain: SNRLDGKVAIITGGTLGIGLAIATKFVEEGAKVMITGRHSDVGEKAAKSVGTPDQIQFFQHDSSDEDGWTKLFDATEKAFGPVSTLVNNAGIAVNKSVEETTTAEWRKLLAVNLDGVFFGTRLGIQRMKNKGLGASIINMSSIEGFVGDPSLGAYNASKGAVRIMSKSAALDCALKDYDVRVNTVHPGYIKTPLVDDLPGAEEAMSQRTKTPMGHIGEPNDIAYICVYLASNESKFATGSEFVVDGGYTAQ
Take B1: in data set [1], the Km was determined as 1130 ± 60 µM and the Vmax is 154 µmol/min/mg. For the same protein, in data set [2], the Km came to 5100 ± 600 µM and the Vmax was 148 µmol/min/mg.

B2: LbADH (Levilactobacillus brevis; K72E) (protein)
chain: SNRLDGKVAIITGGTLGIGLAIATKFVEEGAKVMITGRHSDVGEKAAKSVGTPDQIQFFQHDSSDEDGWTELFDATEKAFGPVSTLVNNAGIAVNKSVEETTTAEWRKLLAVNLDGVFFGTRLGIQRMKNKGLGASIINMSSIEGFVGDPSLGAYNASKGAVRIMSKSAALDCALKDYDVRVNTVHPGYIKTPLVDDLPGAEEAMSQRTKTPMGHIGEPNDIAYICVYLASNESKFATGSEFVVDGGYTAQ
For B2, in data set [1], the Km came to 670 ± 40 µM and the Vmax was 221 µmol/min/mg. Moreover, in data set [2], the Km was 4300 ± 500 µM and the Vmax worked out at 173 µmol/min/mg.
